The source of these data is patent US20210032351A1 (XDCEXPLORER SHANGHAI, published 2021).

Numbering of substitutions follows the chain as printed.

The chains are these.
B1: Murine anti-7E5 (antibody, V domains shown)
VH: EIQLQQSGPELVKPGASVKVSCKASGYSFTDYNMYWVKQSHGKSLEWIGYVDPSNGGTNYNQKFKGKATLTVDKSSSTAFMHLNSLTSEDSAVYYCARGFFDYWGQGTTLTVSS
VL: DIVMTQSPSSLTVTAGEKVTMSCKSSQSLLNSGNQKNYLTWYQQKPGQPPKLLIYWASNRESGVPDRFTGSGSGKDFTLTISSVQAEDLAVYYCQNDYRYPVTFGAGTKLELK
notes: Mouse hybridoma antibody; also called 7E5-2A9; murine anti-7E5-2
B2: Murine anti-63A10 (antibody, V domains shown)
VH: QVQLQQSGAELARPGASVKMSCKASGYTFISFTMHWVKQRPGQGLEWIGYINPNSGYTKYNQKFKDKATLTAGQSSSTAYMQLSSLTSEDSAVYYCTRGGGRGFAYWGQGTLVTVSA
VL: DILMTQSPSSMSVSLGDTVTITCHASQDINSNIGWLQQKPGKSFKALIYHGTNLEDGVPSRFSGSGSGADYSLTISSLESEDFADYYCVQYAQFPFTFGSGTKLEIK
notes: Mouse hybridoma antibody; also called 63A10A7
B3: Murine anti-64F1 (antibody, V domains shown)
VH: B2 VH with I30S, F32Y, V37A, N54S, G73D, Q74K, A92I, T97A
VL: QIVLTQSPAIMSASPGERVTMTCSASSSVSYMYWYQQKPGSSPRLLIYDTSNLASGVPVRFSGSGSGTSYSLTISRVEAEDAATYYCQQWSSYSLTFGAGTKLELK
notes: Mouse hybridoma antibody; also called 64F1F8
B4: Murine anti-75G7 (antibody, V domains shown)
VH: EVQLQQSGPELVKPGASVKIPCKASGYTFTDYNMDWVKQSHGKSLEWIGDINPNNGDTIYNQKFKGKATLTVDKSSSTAYMELRSLTSEDTAVYYCARGDYDGYYPVYYAMDYWGQGTSVTVSS
VL: ENVLTQSPAIMSASPGEKVTMTCRASSSVSSSYLHWYQQKSGASPKLWIFSTSNLAAGVPARFSGSGSGTSYSLTVSSVEAEDAATYYCQQYSGYPLTFGAGTKLELK
notes: Mouse hybridoma antibody; also called 75G7C6
B5: Chimeric antibody 64F1 (antibody, human IgG1, V domains shown)
VH: B2 VH with I30S, F32Y, V37A, N54S, G73D, Q74K, A92I, T97A
VL: B3 VL
notes: also called 64F1F8 (chimeric)
B6: Chimeric antibody 75G7 (antibody, human IgG1, V domains shown)
VH: B4 VH
VL: B4 VL
notes: also called c75G7C6; wild-type chimeric antibody c75G7C6

One experiment deals with T1, wild-type human EGFR protein on the surface of cells (A431, HEB, U87MG) (human, UniProt P00533 25-1210).
T1 construct: whole, on cells; One molecule for all three cell lines; the cell line is named under assay; also called wild-type EGFR
As to the kind of experiment: FACS on A431 cells. The method, then: (§1) The collected cells are suspended to 2×10⁶ cells/mL with an FACS buffer (HBSS+1% BSA, with the percentage being the mass percentage), added to a 96-well FACS reaction plate at 100 μL/well, then added with 100 μL/well of the purified EGFRvIII antibody (samples to be tested) obtained in example 2, and incubated on ice for 2 hours. The plate is centrifugally washed twice with the FACS buffer, added with 100 μL/well of a fluorescence (Alexa 488) labeled secondary antibody (purchased from Invitrogen), and then incubated on ice for 1 hour. The plate is centrifugally washed 3 times with the FACS buffer, added with 100 μL/well of a fixing solution [4% (v/v) paraformaldehyde] for suspending the cells, and centrifugally washed twice with the FACS buffer after 10 minutes. The cells are suspended in 100 μL of the FACS buffer, and the results are detected and analyzed by FACS (FACS Calibur, purchased from BD). Data analysis is performed by using the software (CellQuest) to obtain the mean fluorescence intensity (MFI) of the cells. Data is further analyzed by using the software (GraphPad Prism5) to perform data fitting and calculate EC50. […] A431 cells (human epidermal cell cancer cell lines) have a large amount of wild-type EGFR protein expressed on the surface thereof. […] U87MG cells (human glioma cell lines) have a small amount of wild-type EGFR protein expressed on the surface thereof, while HEB cells (human glioma cell lines) have a high level of wild-type EGFR protein expression on the surface thereof.
B1: the binding result is recorded as “no binding”.

Another experiment deals with T2, human EGFRvIII protein on the surface of U87MG-hEGFRvIII cells (human, UniProt P00533 25-1210).
T2 construct: whole, on cells; Stably transfected U87MG cells; also called mutant EGFRvIII protein; U87MG-EGFRvIII
As to the kind of experiment: FACS on U87MG-hEGFRvIII cells. The method, then: as §1, with “The cells are washed twice with the HBSS buffer and are counted, and then the cells are diluted with the HBSS buffer to 2×10⁶ cells/ml, added with 1% goat serum blocking solution, with the percentage being the mass percentage, and incubated on ice for 30 minutes, and then centrifugally washed twice with the HBSS buffer. The collected” for “The collected”
The molecule B2 came in with a 50% effective concentration (EC50) of 3.1 nM.
On the same count and under the same terms, under B3 stands 2 nM; under B1, 2.9 nM; under B4, 4.8 nM.

For a further experiment, the target named is T3, biotin-labeled recombinant EGFRvIII protein (UniProt P00533 25-645, biotin-labeled).
T3 construct: the construct is not described
As to the kind of experiment: competitive ELISA; competitor Murine anti-7E5. The method, then:
(§2) The purified antibodies to be tested are diluted with PBS to 1 μg/mL, coated onto a 96-well high-adsorption ELISA plate at 50 μL/well at 4° C. overnight, and then blocked with 250 μL of the blocking solution [PBS containing 0.01% (v/v) Tween20 and 1% (w/w) BSA] for one hour at room temperature, and each well is added with 0.05 μg/mL of the biotin-labeled recombinant EGFRvIII protein. Simultaneously, 5 μg/mL of the competitive antibody (i.e., the purified EGFRvIII antibody obtained in example 2) is added thereto, and incubated at 25° C.−37° C. for 1 to 2 hours. The plate is washed 3 times with the plate washing solution [PBS containing 0.01% (v/v) Tween20], and added with HRP (horseradish peroxidase) labeled streptavidin (purchased from Sigma). The plate is incubated for 0.5 hour at 37° C., and then washed 3 times with the plate washing solution [PBS containing 0.01% (v/v) Tween20]. The plate is added with 100 μL of TMB substrate/well, incubated for 30 minutes at room temperature, and then added with 100 μL of stopping solution (1.0N HCl)/well. A450 nm value is read using an ELISA plate reader (SpectraMax 384 plus, purchased from Molecular Device), and the results are shown in FIG. 6.
For orientation: An ELISA detects its analyte on a solid surface through an enzyme-linked reagent.
In the case of B2, the competition rate was 82%.
As for B3, the competition rate turned out to be 80%.
Turning to B1, the competition rate came out at 85%.
For B4, the competition rate is 3%.

Another experiment addresses T3, biotin-labeled recombinant EGFRvIII …. As to the kind of experiment: competitive ELISA; competitor Murine anti-64F1. The method, then: as §2
In the case of B2, the competition rate stood at 73%.
As for B3, the competition rate is 72%.
B1: the competition rate was 71%.
The same measure, in the same setting: as for B4, the figure is -3%.

For a further experiment the target is unchanged. As to the kind of experiment: competitive ELISA; competitor Murine anti-75G7. The method, then:
as §2
For B2, the competition rate came to 20%.
Regarding B3, the competition rate amounted to 13%.
Regarding B1, the competition rate was 23%.
Still for that read-out and setting: under B4 stands 67%.

For another experiment the target is unchanged. As to the kind of experiment: competitive ELISA; competitor Murine anti-63A10. The method, then:
as §2
Regarding B2, the competition rate was 89%.
Turning to B3, the competition rate came out at 81%.
Regarding B1, the competition rate came to 70%.
Take B4: the competition rate was 9%.

The target in another experiment is T2, human EGFRvIII protein on the surface …. As to the kind of experiment: immunohistochemical staining, human glioma tissue chip.
Take B2: the “positive samples of 70 GBM samples” value was 24 samples.
Same read-out and setting: under B3 stands 24 samples.
Take B1: the “positive samples of 70 GBM samples” value stood at 24 samples.

A further experiment concerns the target T3, biotin-labeled recombinant EGFRvIII …. As to the kind of experiment: competitive ELISA; competitor Control antibody 01. The method, then:
as §2
For B2, the competition rate was -3%.
Still for that read-out and setting: under B3 stands -5%; under B1, -2%.
Consider B4, for which the competition rate was -5%.

Another experiment shares this target. As to the kind of experiment: competitive ELISA; competitor Control antibody 02. The method, then: as §2
In the case of B2, the competition rate came out at 79%.
On the same count and under the same terms, under B3 stands 69%.
On the same count and under the same terms, as for B1, the figure is 66%; as for B4, -2%.

For the next experiment, the target named is T4, human EGFRvIII-hFc protein (human, UniProt P00533 25-645).
T4 construct: extracellular domain; made in HEK293 cells, purified on protein A; also called immunogen A; hFc-tagged EGFRvIII protein; not shown: human IgG Fc fragment (hFc) of the pCpC vector
As to the kind of experiment: ELISA, plate coated with human EGFRvIII-hFc, HRP secondary antibody, absorbance at 450 nm. The method, then:
The purified immunogen A (EGFRvIII-hFc) obtained in example 1 (for the preparation method, see step (I) in example 1) is diluted with PBS to a final concentration of 1.0 μg/mL, and then added to a 96-well ELISA plate at 100 μl/well. The plate is sealed with a plastic film and incubated at 4° C. overnight. The next day, the plate is washed twice with a plate washing solution [PBS+0.01% (v/v) Tween20], and added with a blocking solution [PBS+0.01% (v/v) Tween20+1% (w/w) BSA] for blocking 2 hours at room temperature. […] The plate is incubated for 2 hours at 37° C., and then washed 3 times with the plate washing solution [PBS+0.01% (v/v) Tween20]. The plate is added with an HRP (horseradish peroxidase) labeled secondary antibody (purchased from Sigma), incubated at 37° C. for 2 hours, and then washed 3 times with the plate washing solution [PBS+0.01% (v/v) Tween20]. The plate is added with 100 μl of TMB substrate/well, incubated for 30 minutes at room temperature, and then added with 100 μl of stopping solution (1.0N HCl)/well. A450 nm value is read using an ELISA plate reader (SpectraMax 384plus, purchased from Molecular Device), and the results are shown in FIG. 11 and table 19.
Turning to B5, the half-maximal effective concentration (EC50 (read off the curve)) was approximately 0.01 nM.
Same read-out and setting: under B6 stands approximately 0.05 nM.

What is called EC50 is the midpoint of the concentration-response curve. The EC50 (read off the curve) is the concentration at which the effect is half-maximal.
